Source: PMC9482650, “Quantitative fragmentomics allow affinity mapping of interactomes” (Nature Communications, 2022)

Tests used:
Assay in all cases: holdup assay
Set-up in all cases: key: below the threshold = too weak to quantify, mostly under pKd 3.1 to 4
[1] = biological target: T1, CARD11, Q9BXL7
T1 sequence (Q9BXL7 662-765, limits assumed, looked up): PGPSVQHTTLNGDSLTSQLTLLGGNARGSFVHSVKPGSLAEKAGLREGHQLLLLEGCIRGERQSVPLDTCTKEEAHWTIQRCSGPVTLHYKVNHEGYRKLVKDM

[2] = biological target: GIPC2, Q8TF65
[3] = biological target: T2, APBA2_2, Q99767
T2 sequence (Q99767 654-744, limits assumed, looked up): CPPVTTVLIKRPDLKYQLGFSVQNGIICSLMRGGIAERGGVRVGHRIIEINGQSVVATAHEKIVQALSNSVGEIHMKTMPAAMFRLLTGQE

[4] = biological target: Inadl_4, Q8NI35
[5] = biological target: T3, LNX2_2, Q8N448
T3 sequence (Q8N448 334-432, limits assumed, looked up): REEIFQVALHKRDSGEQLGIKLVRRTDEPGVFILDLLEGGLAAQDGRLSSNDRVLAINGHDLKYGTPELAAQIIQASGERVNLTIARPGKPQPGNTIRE

[6] = biological target: NOS1, P29475
[7] = biological target: SNX27, Q96L92
[8] = biological target: T4, SNTB1, Q13884
T4 sequence (Q13884 107-205, limits assumed, looked up): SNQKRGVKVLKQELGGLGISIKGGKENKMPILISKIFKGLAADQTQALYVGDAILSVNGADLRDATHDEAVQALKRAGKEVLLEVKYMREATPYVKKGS

[9] = biological target: PICK1, Q9NRD5
[10] = biological target: NHERF4_2, Q86UT5
[11] = biological target: T5, ARHGAP21, Q5T5U3
T5 sequence (Q5T5U3 45-169, limits assumed, looked up): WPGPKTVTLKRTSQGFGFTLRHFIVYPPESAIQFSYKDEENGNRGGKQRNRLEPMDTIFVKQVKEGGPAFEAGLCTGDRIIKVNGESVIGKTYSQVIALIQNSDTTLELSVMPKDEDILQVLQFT

[12] = biological target: T6, SNTG1, Q9NSN8
T6 sequence (Q9NSN8 52-150, limits assumed, looked up): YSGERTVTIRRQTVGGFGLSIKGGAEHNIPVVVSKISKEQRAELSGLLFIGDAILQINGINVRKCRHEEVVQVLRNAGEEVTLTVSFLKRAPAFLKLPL

[13] = biological target: T7, MPDZ_12, O75970
T7 sequence (O75970 1857-1958, limits assumed, looked up): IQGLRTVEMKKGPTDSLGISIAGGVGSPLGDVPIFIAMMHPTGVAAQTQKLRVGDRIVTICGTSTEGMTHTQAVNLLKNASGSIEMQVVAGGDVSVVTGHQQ

[14] = biological target: IL16_3, Q14005
[15] = biological target: Inadl_10, Q8NI35
[16] = biological target: MAGI2_6, Q86UL8
[17] = biological target: T8, TJP3_3, O95049
T8 sequence (O95049 375-456, limits assumed, looked up): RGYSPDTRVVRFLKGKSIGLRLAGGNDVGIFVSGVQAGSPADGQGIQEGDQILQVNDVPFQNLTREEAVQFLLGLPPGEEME

[18] = biological target: T9, DFNB31_1, Q9P202
T9 sequence (Q9P202 135-233, limits assumed, looked up): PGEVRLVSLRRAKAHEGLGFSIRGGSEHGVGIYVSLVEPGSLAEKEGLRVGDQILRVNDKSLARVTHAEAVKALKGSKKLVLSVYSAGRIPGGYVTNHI

[19] = biological target: T10, RAPGEF6, Q8TEU7
T10 sequence (Q8TEU7 525-625, limits assumed, looked up): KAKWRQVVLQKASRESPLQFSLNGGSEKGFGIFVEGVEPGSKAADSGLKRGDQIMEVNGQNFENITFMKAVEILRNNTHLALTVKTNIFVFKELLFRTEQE

[20] = biological target: PTPN3, P26045
[21] = biological target: T11, HTRA3, P83110
T11 sequence (P83110 354-453, limits assumed, looked up): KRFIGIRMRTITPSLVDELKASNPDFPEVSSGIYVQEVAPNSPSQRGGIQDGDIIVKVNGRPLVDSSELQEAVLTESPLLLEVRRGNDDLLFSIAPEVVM

[22] = biological target: FRMPD4, Q14CM0
[23] = biological target: T12, DFNB31_3, Q9P202
T12 sequence (Q9P202 811-907, limits assumed, looked up): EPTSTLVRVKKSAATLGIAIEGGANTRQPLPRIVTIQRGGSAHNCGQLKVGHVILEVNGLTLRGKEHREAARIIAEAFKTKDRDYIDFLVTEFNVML

[24] = biological target: T13, DFNB31_2, Q9P202
T13 sequence (Q9P202 274-371, limits assumed, looked up): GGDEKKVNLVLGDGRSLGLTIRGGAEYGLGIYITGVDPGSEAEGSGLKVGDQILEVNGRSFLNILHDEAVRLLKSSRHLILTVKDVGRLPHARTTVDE

[25] = biological target: SCRIB_1, Q14160
[26] = modified: phospho on T at position -2 from the C-terminal residue
[27] = plain residues with an end cap or a label only (N-terminal biotin on a linker: ado-ado)

Chain of FRMPD4, Q14CM0 (Q14CM0 67-160): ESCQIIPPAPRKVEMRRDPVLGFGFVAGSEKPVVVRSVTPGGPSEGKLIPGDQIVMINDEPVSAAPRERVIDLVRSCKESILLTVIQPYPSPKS
Chain of SCRIB_1, Q14160 (Q14160 718-814): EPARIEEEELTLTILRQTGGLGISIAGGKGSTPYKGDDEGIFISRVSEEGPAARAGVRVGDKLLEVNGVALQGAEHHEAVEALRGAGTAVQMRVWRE
Chain of NHERF4_2, Q86UT5 (Q86UT5 220-308): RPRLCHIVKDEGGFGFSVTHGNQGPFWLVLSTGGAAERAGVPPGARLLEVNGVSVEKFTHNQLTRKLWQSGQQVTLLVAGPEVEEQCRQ
Chain of PTPN3, P26045 (P26045 505-587): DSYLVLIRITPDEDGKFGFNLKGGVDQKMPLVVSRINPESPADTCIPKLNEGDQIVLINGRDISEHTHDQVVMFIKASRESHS
Chain of MAGI2_6, Q86UL8 (Q86UL8 1141-1229): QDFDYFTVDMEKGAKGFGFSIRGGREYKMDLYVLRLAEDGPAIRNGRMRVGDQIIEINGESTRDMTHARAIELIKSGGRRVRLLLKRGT
Chain of NOS1, P29475 (P29475 9-101): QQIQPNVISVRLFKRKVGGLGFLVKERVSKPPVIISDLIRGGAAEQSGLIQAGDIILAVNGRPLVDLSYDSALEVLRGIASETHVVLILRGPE
Chain of GIPC2, Q8TF65 (Q8TF65 112-203): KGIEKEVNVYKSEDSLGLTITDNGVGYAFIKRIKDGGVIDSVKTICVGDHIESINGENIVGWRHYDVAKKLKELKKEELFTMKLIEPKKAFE
Chain of Inadl_4, Q8NI35 (Q8NI35 547-651): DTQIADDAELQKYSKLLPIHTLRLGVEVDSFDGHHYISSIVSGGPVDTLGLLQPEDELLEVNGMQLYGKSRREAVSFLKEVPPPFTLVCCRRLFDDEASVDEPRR
Chain of PICK1, Q9NRD5 (Q9NRD5 17-115): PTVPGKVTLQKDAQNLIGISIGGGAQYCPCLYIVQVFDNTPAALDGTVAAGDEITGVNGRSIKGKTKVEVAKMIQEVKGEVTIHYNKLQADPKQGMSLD
Chain of Inadl_10, Q8NI35 (Q8NI35 1673-1763): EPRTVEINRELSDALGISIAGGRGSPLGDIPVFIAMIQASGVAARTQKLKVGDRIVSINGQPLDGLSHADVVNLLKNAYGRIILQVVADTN
Chain of IL16_3, Q14005 (Q14005 1107-1207): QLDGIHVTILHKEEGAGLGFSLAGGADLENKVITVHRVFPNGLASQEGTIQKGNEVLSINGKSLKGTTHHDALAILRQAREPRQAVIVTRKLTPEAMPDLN

Question: Which results are given for RLQRRRETQV [HPV18-E6_-2P, P06463]?
Answer: pKd [1, 26]: below the threshold; pKd [2, 26]: below the threshold; pKd [3, 26]: below the threshold; pKd [4, 26]: below the threshold; pKd [5, 26]: below the threshold; pKd [6, 26]: 3.75; pKd [7, 26]: 3.61; pKd [8, 26]: below the threshold; pKd [9, 26]: below the threshold; pKd [10, 26]: below the threshold; pKd [11, 26]: 4.03; pKd [12, 26]: below the threshold; pKd [13, 26]: below the threshold; pKd [14, 26]: below the threshold; pKd [15, 26]: below the threshold; pKd [16, 26]: below the threshold; pKd [17, 26]: below the threshold; pKd [18, 26]: below the threshold; pKd [19, 26]: below the threshold; pKd [20, 26]: below the threshold; pKd [21, 26]: below the threshold; pKd [22, 26]: below the threshold; pKd [23, 26]: 3.9; pKd [24, 26]: below the threshold; pKd [25, 26]: below the threshold

Question: How did the pKd [1, 27] turn out when QPCFNKLFPL [LPXN, O60711] was run?
Answer: below the threshold

Question: And the pKd [2, 27]?
Answer: below the threshold

Question: And the pKd [3, 27]?
Answer: below the threshold

Question: And the pKd [4, 27]?
Answer: below the threshold

Question: What about the pKd [5, 27] of the same binder?
Answer: below the threshold

Question: What about the pKd [6, 27] of the same binder?
Answer: 3.5

Question: What about the pKd [7, 27] of the same binder?
Answer: 3.75

Question: What about the pKd [8, 27] of the same binder?
Answer: below the threshold

Question: What about the pKd [9, 27] of the same binder?
Answer: below the threshold

Question: What about the pKd [10, 27] of the same binder?
Answer: below the threshold

Question: What about the pKd [11, 27] of the same binder?
Answer: 3.91

Question: What about the pKd [12, 27] of the same binder?
Answer: below the threshold

Question: What about the pKd [13, 27] of the same binder?
Answer: below the threshold

Question: And the pKd [14, 27]?
Answer: below the threshold

Question: And the pKd [15, 27]?
Answer: below the threshold

Question: What about the pKd [16, 27] of the same binder?
Answer: below the threshold

Question: What about the pKd [17, 27] of the same binder?
Answer: below the threshold

Question: And the pKd [18, 27]?
Answer: below the threshold

Question: And the pKd [19, 27]?
Answer: below the threshold

Question: What about the pKd [20, 27] of the same binder?
Answer: below the threshold

Question: What about the pKd [21, 27] of the same binder?
Answer: below the threshold

Question: What about the pKd [22, 27] of the same binder?
Answer: 4.64

Question: What about the pKd [23, 27] of the same binder?
Answer: below the threshold

Question: And the pKd [24, 27]?
Answer: below the threshold

Question: What about the pKd [25, 27] of the same binder?
Answer: below the threshold

Question: What does the source list for SSALYGESDL [ACTN2, P35609]?
Answer: pKd [1, 27]: below the threshold; pKd [2, 27]: 4.09; pKd [3, 27]: 3.47; pKd [4, 27]: below the threshold; pKd [5, 27]: below the threshold; pKd [6, 27]: below the threshold; pKd [7, 27]: 4.76; pKd [8, 27]: 4.05; pKd [9, 27]: below the threshold; pKd [10, 27]: below the threshold; pKd [11, 27]: below the threshold; pKd [12, 27]: 4.12; pKd [13, 27]: below the threshold; pKd [14, 27]: below the threshold; pKd [15, 27]: below the threshold; pKd [16, 27]: 5.05; pKd [17, 27]: below the threshold; pKd [18, 27]: below the threshold; pKd [19, 27]: 3.6; pKd [20, 27]: 4.45; pKd [21, 27]: below the threshold; pKd [22, 27]: below the threshold; pKd [23, 27]: 3.64; pKd [24, 27]: below the threshold; pKd [25, 27]: 4.23

Question: What does the source list for GQEEQVTTRL [TRPC5, Q9UL62]?
Answer: pKd [1, 27]: below the threshold; pKd [2, 27]: below the threshold; pKd [3, 27]: below the threshold; pKd [4, 27]: below the threshold; pKd [5, 27]: below the threshold; pKd [6, 27]: 3.57; pKd [7, 27]: 5.47; pKd [8, 27]: 4.04; pKd [9, 27]: 4.06; pKd [10, 27]: below the threshold; pKd [11, 27]: 4.07; pKd [12, 27]: below the threshold; pKd [13, 27]: below the threshold; pKd [14, 27]: below the threshold; pKd [15, 27]: below the threshold; pKd [16, 27]: 3.59; pKd [17, 27]: below the threshold; pKd [18, 27]: 4.42; pKd [19, 27]: below the threshold; pKd [20, 27]: 4.54; pKd [21, 27]: below the threshold; pKd [22, 27]: 4.29; pKd [23, 27]: 3.8; pKd [24, 27]: below the threshold; pKd [25, 27]: 3.79

Question: For NLSIEKETKL [ASNSD1, Q9NWL6], which pKd [1, 27] is on record?
Answer: below the threshold

Question: And the pKd [2, 27]?
Answer: below the threshold

Question: And the pKd [3, 27]?
Answer: below the threshold

Question: What about the pKd [4, 27] of the same binder?
Answer: below the threshold

Question: What about the pKd [5, 27] of the same binder?
Answer: below the threshold

Question: What about the pKd [6, 27] of the same binder?
Answer: below the threshold

Question: And the pKd [7, 27]?
Answer: 5.65

Question: And the pKd [8, 27]?
Answer: 5.22

Question: What about the pKd [9, 27] of the same binder?
Answer: 3.95

Question: What about the pKd [10, 27] of the same binder?
Answer: below the threshold

Question: What about the pKd [11, 27] of the same binder?
Answer: below the threshold

Question: And the pKd [12, 27]?
Answer: 4

Question: And the pKd [13, 27]?
Answer: 3.56

Question: And the pKd [14, 27]?
Answer: below the threshold

Question: What about the pKd [15, 27] of the same binder?
Answer: below the threshold

Question: And the pKd [16, 27]?
Answer: 3.88

Question: And the pKd [17, 27]?
Answer: below the threshold

Question: What about the pKd [18, 27] of the same binder?
Answer: 4.41

Question: And the pKd [19, 27]?
Answer: below the threshold

Question: What about the pKd [20, 27] of the same binder?
Answer: 5.21

Question: What about the pKd [21, 27] of the same binder?
Answer: below the threshold

Question: And the pKd [22, 27]?
Answer: 4.28

Question: And the pKd [23, 27]?
Answer: 3.52

Question: What about the pKd [24, 27] of the same binder?
Answer: 3.94

Question: And the pKd [25, 27]?
Answer: 4.3

Question: For SKENVQETQI [LRRC4B, Q9NT99], which pKd [1, 27] is on record?
Answer: below the threshold

Question: What about the pKd [2, 27] of the same binder?
Answer: below the threshold

Question: And the pKd [3, 27]?
Answer: below the threshold

Question: And the pKd [4, 27]?
Answer: below the threshold

Question: What about the pKd [5, 27] of the same binder?
Answer: below the threshold

Question: And the pKd [6, 27]?
Answer: 3.85

Question: What about the pKd [7, 27] of the same binder?
Answer: 5.55

Question: What about the pKd [8, 27] of the same binder?
Answer: 5.07

Question: What about the pKd [9, 27] of the same binder?
Answer: below the threshold

Question: And the pKd [10, 27]?
Answer: below the threshold

Question: And the pKd [11, 27]?
Answer: below the threshold

Question: What about the pKd [12, 27] of the same binder?
Answer: 4.94

Question: What about the pKd [13, 27] of the same binder?
Answer: 3.48

Question: And the pKd [14, 27]?
Answer: below the threshold

Question: And the pKd [15, 27]?
Answer: below the threshold

Question: What about the pKd [16, 27] of the same binder?
Answer: 3.92

Question: What about the pKd [17, 27] of the same binder?
Answer: below the threshold

Question: And the pKd [18, 27]?
Answer: 5.32

Question: What about the pKd [19, 27] of the same binder?
Answer: 3.52

Question: And the pKd [20, 27]?
Answer: 4.8

Question: What about the pKd [21, 27] of the same binder?
Answer: below the threshold

Question: What about the pKd [22, 27] of the same binder?
Answer: below the threshold

Question: What about the pKd [23, 27] of the same binder?
Answer: 3.47

Question: What about the pKd [24, 27] of the same binder?
Answer: below the threshold

Question: What about the pKd [25, 27] of the same binder?
Answer: 4.93
